Columns and labels:
CD8+ T cells = test: In vitro immunogenicity: T-cell priming with aAPCs loaded with peptide/MHC and anti-CD28, multimer staining; format: cell-based, human; settings: in vitro immunogenicity of HLA class I peptides; peptide-specific multimer staining after aAPC priming of CD8+ T cells
Description: In order to obtain information regarding the immunogenicity of the TUMAPs of the present invention, the inventors performed investigations using an in vitro T-cell priming assay based on repeated stimulations of CD8+ T cells with artificial antigen presenting cells (aAPCs) loaded with peptide/MHC complexes and anti-CD28 antibody.
In order to perform in vitro stimulations by artificial antigen presenting cells loaded with peptide-MHC complex (pMHC) and anti-CD28 antibody, the inventors first isolated CD8+ T cells from fresh HLA-A*02 leukapheresis products via positive selection using CD8 microbeads (Miltenyi Biotec, Bergisch-Gladbach, Germany) of healthy donors obtained from the University clinics Mannheim, Germany, after informed consent.
PBMCs and isolated CD8+ lymphocytes were incubated in T-cell medium (TCM) until use consisting of RPMI-Glutamax (Invitrogen, Karlsruhe, Germany) supplemented with 10% heat inactivated human AB serum (PAN-Biotech, Aidenbach, Germany), 100 U/ml Penicillin/100 μg/ml Streptomycin (Cambrex, Cologne, Germany), 1 mM sodium pyruvate (CC Pro, Oberdorla, Germany), 20 µg/ml Gentamycin (Cambrex). 2.5 ng/ml IL7 (PromoCell, Heidelberg, Germany) and 10 U/ml IL-2 (Novartis Pharma, Nurnberg, Germany) were also added to the TCM at this step.
Generation of pMHC/anti-CD28 coated beads, T-cell stimulations and readout was performed in a highly defined in vitro system using four different pMHC molecules per stimulation condition and 8 different pMHC molecules per readout condition.
The purified co-stimulatory mouse IgG2a anti human CD28 Ab 9.3 (Jung et al., 1987) was chemically biotinylated using Sulfo-N-hydroxysuccinimidobiotin as recommended by the manufacturer (Perbio, Bonn, Germany). Beads used were 5.6 μm diameter streptavidin coated polystyrene particles (Bangs Laboratories, Illinois, USA).
pMHC used for positive and negative control stimulations were A*0201/MLA-001 (peptide […] (SEQ ID NO. 303) from modified Melan-A/MART-1) and A*0201/DDX5-001 ([…] from DDX5, SEQ ID NO. 304), respectively.
800.000 beads/200 μl were coated in 96-well plates in the presence of 4×12.5 ng different biotin-pMHC, washed and 600 ng biotin anti-CD28 were added subsequently in a volume of 200 μl. Stimulations were initiated in 96-well plates by co-incubating 1×10^6 CD8+ T cells with 2×10^5 washed coated beads in 200 μI TCM supplemented with 5 ng/ml IL-12 (PromoCell) for 3 days at 37° C. Half of the medium was then exchanged by fresh TCM supplemented with 80 U/ml IL-2 and incubating was continued for 4 days at 37° C. This stimulation cycle was performed for a total of three times. For the pMHC multimer readout using 8 different pMHC molecules per condition, a two-dimensional combinatorial coding approach was used as previously described (Andersen et al., 2012) with minor modifications encompassing coupling to 5 different fluorochromes. Finally, multimeric analyses were performed by staining the cells with Live/dead near IR dye (Invitrogen, Karlsruhe, Germany), CD8-FITC antibody clone SK1 (BD, Heidelberg, Germany) and fluorescent pMHC multimers. For analysis, a BD LSRII SORP cytometer equipped with appropriate lasers and filters was used. Peptide specific cells were calculated as percentage of total CD8+ cells. Evaluation of multimeric analysis was done using the FlowJo software (Tree Star, Oreg., USA). In vitro priming of specific multimer+CD8+ lymphocytes was detected by comparing to negative control stimulations.

HLA-A*02 = HLA-A*02 (Homo sapiens, UniProt P04439, D140Y/D185E/D98H/E176V/E277Q/G131W/G231S/I119V/I121R/I166T/I218V/L300P/N151K/N90K/P208A/P217A/Q86G/Q94H/R138H/R169H); test: MHC binding assay (UV-ligand exchange, beta2m ELISA), HLA-A*02; settings: peptide exchange yield, binding to HLA-A*02, UV-ligand exchange, β2m ELISA
Description: Candidate peptides for T cell based therapies according to the present invention were further tested for their MHC binding capacity (affinity). The individual peptide-MHC complexes were produced by UV-ligand exchange, where a UV-sensitive peptide is cleaved upon UV-irradiation, and exchanged with the peptide of interest as analyzed. Only peptide candidates that can effectively bind and stabilize the peptide-receptive MHC molecules prevent dissociation of the MHC complexes. To determine the yield of the exchange reaction, an ELISA was performed based on the detection of the light chain (β2m) of stabilized MHC complexes. The assay was performed as generally described in Rodenko et al. (Rodenko et al., 2006).
96 well MAXISorp plates (NUNC) were coated over night with 2 ug/ml streptavidin in PBS at room temperature, washed 4× and blocked for 1 h at 37° C. in 2% BSA containing blocking buffer. Refolded HLA-A*02:01/MLA-001 monomers served as standards, covering the range of 15-500 ng/ml. Peptide-MHC monomers of the UV-exchange reaction were diluted 100 fold in blocking buffer. Samples were incubated for 1h at 37° C., washed four times, incubated with 2 ug/ml HRP conjugated anti-62m for 1 h at 37° C., washed again and detected with TMB solution that is stopped with […]. Absorption was measured at 450 nm. Candidate peptides that show a high exchange yield (preferably higher than 50%, most preferred higher than 75%) are generally preferred for a generation and production of antibodies or fragments thereof, and/or T cell receptors or fragments thereof, as they show sufficient avidity to the MHC molecules and prevent dissociation of the MHC complexes.

Row | Substance | Wells positive [%] (CD8+ T cells) | Peptide exchange (HLA-A*02)
1 | 249 (GLCERLVSL; listed as Homo sapiens) [compound 249] | + (<20% = +) | ++++ (>=75% = ++++)
2 | 4 (KLMPGTYTL; listed as Homo sapiens) [compound 4] | + (<20% = +) | ++++ (>=75% = ++++)
3 | 14 (ILAKDLFEI; listed as Homo sapiens) [compound 14] | – | ++++ (>=75% = ++++)
4 | 126 (QMFQYFITV; listed as Homo sapiens) [compound 126] | – | ++++ (>=75% = ++++)
5 | 133 (ALLPRLHQL; listed as Homo sapiens) [compound 133] | – | ++++ (>=75% = ++++)
6 | 112 (SLGKFTFDV; listed as Homo sapiens) [compound 112] | – | ++++ (>=75% = ++++)
7 | 34 (FLLATEVVTV; listed as Homo sapiens) [compound 34] | – | ++++ (>=75% = ++++)
8 | 42 (LLDSVSRL; listed as Homo sapiens) [compound 42] | – | + (<20% = +)
9 | 3 (KLEENGDLYL; listed as Homo sapiens) [compound 3] | – | ++++ (>=75% = ++++)
10 | 147 (YLMDDTVEI; listed as Homo sapiens) [compound 147] | – | ++++ (>=75% = ++++)
11 | 12 (GLLPLLHRA; listed as Homo sapiens) [compound 12] | ++++ (>=70% = ++++) | ++++ (>=75% = ++++)
12 | 248 (YLDRFLAGV; listed as Homo sapiens) [compound 248] | – | ++++ (>=75% = ++++)
